Reference: US20240247073A1 (CONCEPT TO MEDICINE BIOTECH, published 2024)

Columns and labels:
[1] = biological target: T1, human CD40 on the cell surface (human, UniProt P25942 21-277); assay: flow cytometry on human monocyte-derived dendritic cells (CD11c+ gate), PE anti-human IgG Fc, MFI
T1 construct: whole, on cells; also called cell surface CD40; Jurkat-CD40 cells

[2] = biological target: T1, human CD40 on the cell surface; assay: flow cytometry on Jurkat cells overexpressing human CD40, PE anti-human IgG, MFI
Protocol: To evaluate their binding affinity to cell surface CD40, chimeric anti-CD40 monospecific antibodies were tested in Jurkat cell lines that overexpressed CD40 by FACS. A total number of 1×10⁵ Jurkat-CD40 cells in each well were incubated with 10-fold serially diluted antibodies starting from 100 nM for 30 minutes at 4° C. in FACS buffer. After wash by FACS buffer, PE conjugated-anti-human IgG antibody was added to each well and incubated at 4 °C for 30 minutes. After wash, MFI of PE was evaluated by MACSQuant Analyzer 16.

[3] = biological target: T2, human CD40-His protein (human, UniProt P25942 21-193); assay: ELISA, coated human CD40-His
T2 construct: Recombinant His-tagged protein; also called human CD40-his tag; recombinant CD40 protein; not shown: His tag
Protocol: (§1) Briefly, microtiter plates were coated with human CD40-His protein at 1.0 μg/ml in PBS, 100 μl/well at 4° C. overnight, then blocked with 150 μl/well of 1% BSA. Ten-fold dilutions of 42p155, 2p834, 2p931, 42p655, 2p1294, 2p957, 42p495, 3p78, 2p415, 2p442, 2p551, 2p80 and 2p1130 antibodies starting from 100 nM were added to each well and incubated for 1 hour at RT. The plates were washed with PBS/Tween and then incubated with Anti-Human IgG (H&L) (GOAT) Antibody Peroxidase Conjugated for 30 mins at RT. After washing, the plates were developed with TMB substrate and analyzed by spectrophotometer at OD 450 nm.

[4] = biological target: T3, cynomolgus CD40-His protein (cynomolgus, UniProt G7PG38 21-193); assay: ELISA, coated cynomolgus CD40-His
T3 construct: Recombinant His-tagged protein; also called cyno CD40 antigen; not shown: His tag
Protocol: as §1, with “The binding affinity of these clones to cynomolgus CD40 was also tested. Microtiter” for “Briefly, microtiter”, “cynomolgus” for “human”, “4 °C” for “4° C.”, “nm. As shown in FIG. 1B and Table 2, all these clones bound to cynomolgus CD40 at high activity, showing good cross-reactivity between human and cynomolgus CD40 proteins.” for “nm.”

[5] = biological target: T2, human CD40-His protein; assay: SPR (Biacore T200), antibody captured on Protein A
Protocol: The binding of the humanized 42pl55 and 2p442 antibodies to recombinant human CD40 protein (human CD40-his tag) was tested by Biacore and Octet, respectively, using a capture method.
For humanized 42pl55 monoclonal antibodies, 42p155z2 and 42p155z3 were captured using Protein A chip. A serial dilution of human CD40-his tag protein was injected over captured antibody for 3 mins at a flow rate of 10 μl/min. The antigen was allowed to dissociate for 6 min. All the experiments were carried out on a Biacore T200. Data analysis was carried out using Biacore T200 evaluation software.

T1 sequence (P25942 21-277): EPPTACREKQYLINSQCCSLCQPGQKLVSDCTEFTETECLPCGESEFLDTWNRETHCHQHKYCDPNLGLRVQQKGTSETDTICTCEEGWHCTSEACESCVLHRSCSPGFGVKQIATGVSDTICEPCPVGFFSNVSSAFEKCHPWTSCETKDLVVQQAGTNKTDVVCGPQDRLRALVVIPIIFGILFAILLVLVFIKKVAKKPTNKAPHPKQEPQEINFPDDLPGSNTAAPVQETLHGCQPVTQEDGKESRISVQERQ
T2 sequence (P25942 21-193 limits assumed): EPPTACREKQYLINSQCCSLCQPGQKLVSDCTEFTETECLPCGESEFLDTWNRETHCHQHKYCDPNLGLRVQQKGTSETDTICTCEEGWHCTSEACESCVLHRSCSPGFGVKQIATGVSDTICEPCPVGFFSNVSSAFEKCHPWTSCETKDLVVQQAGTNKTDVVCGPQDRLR

B1: 2p834 anti-Claudin 18.2/CD40 bispecific antibody (bispecific antibody, part only; not given: Claudin 18.2 Fab, constant regions, linker, V domains shown, not shown: another chain or arm of the molecule; a dimerising Fc or GST; small tags and cut ends)
VHH: QSQLVESGGGLVQPGGSLRLSCAASGFAFRRYTMSWVRQAPGKGLEWVSTITHNGSITTYAESAQGRFTISRDNAKNTLYLQMNSLKPEDTAVYYCAQGGGSNYYRESWGQGTQVTVSS
- EC50 (read off the curve) [1]: 1 nM

B2: 2p1294 chimeric monospecific antibody (antibody, V domains shown)
VH: QVQLVESGGGLVQPGGSLRLSCAASGFSFRRYTMSWVRQAPGKGLEWVSAISDNGAITTYTESAQGRFTISRDNAKNTLYLQMNSLKPEDTAVYYCAQGGGSNYYRESWGQGTQVTVSS
notes: VHH-chimeric monospecific antibody (cAb), detected with anti-human IgG
- EC50 (read off the curve) [2]: ~0.3 nM

B3: 42p155 chimeric monospecific antibody (antibody, V domains shown)
VH: PSQLVESGGGLVQPGGSLRLSCAASGFAFRSYTMSWVRQAPGKGLEWVSTITHNGAITTYAESAQGRFTISRDNAKNTLYLQMNSLKPEDTAVYYCAQGGGSNYYRESWGQGTQVTVSS
notes: VHH-chimeric monospecific antibody (cAb), detected with anti-human IgG; also called 42pl55; not shown: human constant part (Fc) of the chimeric VHH antibody
- EC50 [3]: 1.73 nM
- EC50 [4]: 0.9 nM
- Kd [5]: 86.9 nM
- koff [5]: 0.0451 s⁻¹
- kon [5]: 519000 M⁻¹ s⁻¹
- EC50 (read off the curve) [2]: ~0.3 nM

B4: 42p495 chimeric monospecific antibody (antibody, V domains shown)
VH: PVQLVESGGNLVQPGGSLRLSCVAPGFTSRNSAMSWVRQAPGKGLEWVSTIYSGKSNTDYADSVKGRFTISTDNAKNTLYLHMNKLKSEDTAVYYCAKGAASDWYVPRDYWGQGTQVTVSS
notes: as for B2
- EC50 (read off the curve) [2]: ~2 nM

B5: 2p957 chimeric monospecific antibody (antibody, V domains shown)
VH: PVQLVESGGGLVQPGGSLRLSCAASGFSFRNYIMSWVRQAPGKGLEWLSSITNSGGITSYTESVKGRFTISRDNAKNTLYLQMNSLKPEDTAVYYCAQGGSDNYYRGSWGQGTQVTVSS
notes: as for B2
- EC50 (read off the curve) [2]: ~3 nM
